# Laboratory results from PMC11645210.
# Molecular target: Shaanxi2011 RBD (bat sarbecovirus Shaanxi2011)
# Assay: SPR
substance,measurement,value
VIR-7229 Fab fragment,Kd,185 nM
same,koff,0.00985 s⁻¹
same,kon,53500 M⁻¹ s⁻¹
